In test [1] the target is T1, hILT4-His-Avi tag (human, UniProt Q8N423 22-459).
T1 construct: also called monomeric human ILT4; extracellular region of hILT4 linked to a His-Avi tag
The test can be described thus: SPR Biacore T200, 37 C; antibody captured by anti-human Fc on CM4 chip, hILT4-His-Avi as analyte; 1:1 Langmuir fit. The method, then: The running buffer was 10 mM HEPES pH 7.4 supplemented with 0.05% Tween-20 and 1 g/L BSA. All anti-ILT4 antibodies were captured on a CM4 chip with pre-immobilized anti-human Fc capture antibody from Southern Biotech (catalog number 2081-01). […] All data were double-referenced and fitted to a 1:1 Langmuir model with mass transport using Biacore T200 Evaluation Software version 3.1.
For orientation: In SPR one partner is held on a chip, and binding of the other changes the refractive index at the surface.

Test [2] concerns the target T2, human ILT4 (hILT4) expressed on cells (human, UniProt Q8N423 22-597).
T2 construct: hILT4 on transfected CHO or 293T cells, or native on human monocytes and macrophages; also called LILRB2
Briefly: flow cytometry cross-blocking on hILT4 CHO cells: unlabelled antibody titrated from 40 µg/mL, then PE-21D9.IgG1.1f at 1.5 µg/mL; competitor: PE-21D9; the 21A5 curve does NOT fall: GMFI (PE) goes from about 615 up to about 665, no blocking of PE-21D9; the printed EC50 belongs to this small rise; table without unit, axis in µg/mL. An excerpt: (§1) After washing, the samples were acquired on a FACSCanto™ cytometer (BD Bioscience, San Jose) and analyzed with Flowjo™ software (Tree Star, Inc, Ashland, Oreg.).

The target of test [3] is T2, human ILT4 (hILT4) expressed on cells. Briefly: flow cytometry cross-blocking on hILT4 CHO cells: unlabelled antibody titrated from 40 µg/mL, then PE-2H2.IgG1.1f at 1.5 µg/mL; competitor: PE-2H2; GMFI (PE) falls from about 330 to about 25; the table calls the value EC50 and has no unit, the concentration axis is in µg/mL.
Description: as §1

The target in test [4] is T3, rhILT4-Fc (human, UniProt Q8N423-1 22-461).
T3 construct: also called rhILT4-Fc fusion protein with a murine Fc tail; not shown: murine Fc tail
The test can be described thus: flow cytometry blocking assay: antibody titrated (12 points) with rhILT4-Fc fixed at 30 µg/ml; rhILT4-Fc bound to HLA-B overexpressing CHO cells read as % Positive; blocked ligand: HLA-B; the IC50 table has no unit, the concentration axis is in ug/mL. (In general: A flow cytometer gives signals particle by particle.)

For test [5], the target named is T4, human LILRA3 (human, UniProt Q8N6C8 24-439).
T4 construct: whole, on cells; also called hLILRA3; LIRA3
The test can be described thus: antibody titration flow cytometry binding assay on transfected cells, nonlinear regression.

For test [6], the target named is T5, human LILRA1 (human, UniProt O75019 17-489).
T5 construct: whole, on cells; also called hLILRA1; LIRA1
The test is described as above.

The target of test [7] is T2, human ILT4 (hILT4) expressed on cells. Described as above.
The target of test [8] is T1, hILT4-His-Avi tag. Briefly: SPR Biacore T200, 37 C; antibody captured on protein A/G chip, monomeric hILT4 as analyte; kinetic fit.
The target of test [9] is T3, rhILT4-Fc. Briefly: flow cytometry blocking assay: antibody titrated (12 points) with rhILT4-Fc fixed at 30 µg/ml; rhILT4-Fc bound to HLA-A overexpressing CHO cells read as % Positive; blocked ligand: HLA-A; the IC50 table has no unit, the concentration axis is in ug/mL.
The target of test [10] is T6, human LIR8 (human, UniProt O75023 24-590).
T6 construct: whole, on cells; also called hLIR8
Briefly: flow cytometry, 293T transfectants, antibody 20 µg/ml; stacked histograms, control: parental cells. The method, then:
(§2) Individual ILT family members were overexpressed in 293T cells. Each transfectant was stained with 20 μg/ml of anti-ILT4 antibodies followed by 1 μg/ml of anti-human IgG secondary mAb. Binding of the antibodies to each transfectant was measured by flow cytometry.

The target of test [11] is T7, human LILRA6 (human, UniProt Q6PI73 24-481).
T7 construct: whole, on cells; also called hLILRA6
Described as above. The method, then:
as §2

The target in test [12] is T8, human LILRA2 (human, UniProt Q8N149 24-483).
T8 construct: whole, on cells; also called hLILRA2
Described as above. The method, then: as §2

The target of test [13] is T9, human ILT2 (human, UniProt Q8NHL6 24-650).
T9 construct: whole, on cells; also called hILT2
The test is described as above. The procedure: as §2

For test [14], the target named is T10, human LILRA4 (human, UniProt P59901 24-499).
T10 construct: whole, on cells; also called hLILRA4
The test is described as above. The method, then:
as §2

Test [15] has as its target T11, human LILRA5 (human, UniProt A6NI73 42-299).
T11 construct: whole, on cells; also called hLILRA5
The test is described as above. The method, then:
as §2

For test [16], the target named is T12, human ILT5 (human, UniProt O75022 24-631).
T12 construct: whole, on cells; also called hILT5; LILRB3
Described as above. The procedure: as §2

Test [17] addresses T13, human ILT3 (human, UniProt Q8NHJ6 22-448).
T13 construct: whole, on cells; also called hILT3
Described as above. The method, then: as §2

The target of test [18] is T2, human ILT4 (hILT4) expressed on cells. The test can be described thus: flow cytometry on hILT4-transfected CHO cells, PE anti-human IgG secondary, GMFI (PE); EC50 from the table below the graph; the table has no unit, the concentration axis is in ug/mL.
Test [19] concerns the target T14, cyno ILT4 9152 extracellular domain, including His-Avi Tag (cynomolgus monkey). Briefly: SPR ProteOn XPR36, 37 C; antibody amine-coupled to GLC chip, ILT4 ECD-His-Avi as analyte; kinetic titration. The method, then:
(§3) The antibody was amine-coupled to a GLC sensor chip in a Proteon XPR36 instrument (BioRad). […] All data were double-referenced, exported, and analyzed with BIAevaluation Software 4.1.1 using the kinetic titration model described by Karlsson et al (Karlsson et al. (2005) Analytical Biochem. 349:136). The running buffer consisted of 10 mM HEPES pH 7.4, 150 mM NaCl and 0.05% Tween-20. The assay temperature was 37° C.

For test [20], the target named is T1, hILT4-His-Avi tag. The description is as above. The procedure: as §3
The target of test [21] is T14, cyno ILT4 9152 extracellular domain, …. Briefly: SPR ProteOn XPR36, 37 C; antibody amine-coupled to GLC chip, ILT4 ECD-His-Avi as analyte. The procedure: as §3

These results are taken from US20200079848A1 (Five Prime, published 2020).

One may read the Kd as the concentration at which binding is half-saturated. Low readings indicate higher affinity, high ones lower affinity. As usually defined, the koff is the first-order rate constant of dissociation. A low value points to slow dissociation. By kon is commonly meant a measure of how fast the partners come together. A high value points to faster complex formation. What is called EC50 is the concentration that produces a half-maximal response. Low values mean a more potent agent, high ones a less potent agent. What is called IC50 is the concentration that inhibits the measured activity by half. Low values mean higher potency, high ones lower potency.

Where “and” joins values, the source holds several entries; their conditions need not be identical. Equal values may be shown once.

T14 sequence (chain, as listed by the source limits assumed): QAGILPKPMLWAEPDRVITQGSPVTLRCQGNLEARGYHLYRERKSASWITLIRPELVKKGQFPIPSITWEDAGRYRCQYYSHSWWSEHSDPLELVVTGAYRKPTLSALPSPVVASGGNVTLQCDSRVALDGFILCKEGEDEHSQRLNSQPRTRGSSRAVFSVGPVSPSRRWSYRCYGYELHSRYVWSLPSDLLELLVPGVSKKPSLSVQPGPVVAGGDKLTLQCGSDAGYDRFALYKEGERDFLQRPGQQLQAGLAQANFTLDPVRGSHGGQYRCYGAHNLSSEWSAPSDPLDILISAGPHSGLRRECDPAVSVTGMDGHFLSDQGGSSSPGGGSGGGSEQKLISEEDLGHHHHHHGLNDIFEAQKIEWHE
T1 sequence (Q8N423 other isoform, or with tags, fused parts or gaps): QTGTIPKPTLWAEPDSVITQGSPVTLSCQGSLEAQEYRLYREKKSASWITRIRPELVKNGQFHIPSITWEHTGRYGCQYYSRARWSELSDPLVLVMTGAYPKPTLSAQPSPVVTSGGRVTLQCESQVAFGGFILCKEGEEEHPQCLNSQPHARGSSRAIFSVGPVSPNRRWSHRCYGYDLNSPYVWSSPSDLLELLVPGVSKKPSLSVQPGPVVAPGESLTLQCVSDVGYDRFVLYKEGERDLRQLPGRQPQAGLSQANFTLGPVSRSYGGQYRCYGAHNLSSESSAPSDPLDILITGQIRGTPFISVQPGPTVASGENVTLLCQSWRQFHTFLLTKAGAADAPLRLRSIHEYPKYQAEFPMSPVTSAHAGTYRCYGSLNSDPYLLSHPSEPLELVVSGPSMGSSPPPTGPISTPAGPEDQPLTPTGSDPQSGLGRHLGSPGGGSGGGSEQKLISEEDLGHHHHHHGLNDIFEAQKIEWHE
T2 sequence (Q8N423 other isoform, or with tags, fused parts or gaps): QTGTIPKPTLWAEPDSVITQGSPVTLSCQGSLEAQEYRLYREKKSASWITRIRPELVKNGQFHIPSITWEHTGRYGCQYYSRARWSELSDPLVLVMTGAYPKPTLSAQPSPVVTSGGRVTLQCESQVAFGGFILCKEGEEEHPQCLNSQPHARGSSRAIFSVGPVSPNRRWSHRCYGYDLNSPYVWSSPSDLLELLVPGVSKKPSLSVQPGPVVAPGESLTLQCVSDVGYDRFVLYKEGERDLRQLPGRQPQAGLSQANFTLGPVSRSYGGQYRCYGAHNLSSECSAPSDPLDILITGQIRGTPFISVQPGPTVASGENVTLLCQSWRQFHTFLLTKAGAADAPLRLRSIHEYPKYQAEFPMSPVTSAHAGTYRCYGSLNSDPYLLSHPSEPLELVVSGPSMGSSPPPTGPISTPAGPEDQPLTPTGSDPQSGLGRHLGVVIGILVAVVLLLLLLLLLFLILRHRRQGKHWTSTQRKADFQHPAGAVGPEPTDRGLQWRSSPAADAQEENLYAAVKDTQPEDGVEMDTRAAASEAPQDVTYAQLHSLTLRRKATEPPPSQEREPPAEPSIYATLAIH
T3 sequence (Q8N423 other isoform, or with tags, fused parts or gaps): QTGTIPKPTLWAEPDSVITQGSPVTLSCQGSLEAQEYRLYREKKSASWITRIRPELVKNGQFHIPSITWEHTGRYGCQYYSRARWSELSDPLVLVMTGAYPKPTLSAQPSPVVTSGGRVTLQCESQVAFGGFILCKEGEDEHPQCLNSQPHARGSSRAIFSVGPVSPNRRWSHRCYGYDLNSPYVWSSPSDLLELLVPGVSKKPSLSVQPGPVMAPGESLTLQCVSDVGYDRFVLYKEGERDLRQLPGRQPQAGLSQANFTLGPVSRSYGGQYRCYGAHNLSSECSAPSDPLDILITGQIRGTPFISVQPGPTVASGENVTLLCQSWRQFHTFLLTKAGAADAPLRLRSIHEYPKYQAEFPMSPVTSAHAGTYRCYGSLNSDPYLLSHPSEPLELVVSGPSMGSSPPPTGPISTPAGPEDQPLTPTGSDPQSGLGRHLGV
T4 sequence (Q8N6C8 24-439): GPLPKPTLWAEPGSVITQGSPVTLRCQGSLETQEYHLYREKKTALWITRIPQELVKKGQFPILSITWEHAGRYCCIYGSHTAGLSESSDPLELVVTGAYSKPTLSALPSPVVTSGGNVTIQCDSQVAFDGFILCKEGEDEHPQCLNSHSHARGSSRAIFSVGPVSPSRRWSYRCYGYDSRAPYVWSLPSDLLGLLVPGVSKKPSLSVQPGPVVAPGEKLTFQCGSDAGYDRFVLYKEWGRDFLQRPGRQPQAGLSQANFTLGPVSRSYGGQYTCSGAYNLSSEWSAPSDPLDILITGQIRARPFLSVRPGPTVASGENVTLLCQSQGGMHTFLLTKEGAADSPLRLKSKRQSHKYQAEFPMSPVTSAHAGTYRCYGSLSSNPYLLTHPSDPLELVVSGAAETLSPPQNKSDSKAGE
T8 sequence (Q8N149 24-483): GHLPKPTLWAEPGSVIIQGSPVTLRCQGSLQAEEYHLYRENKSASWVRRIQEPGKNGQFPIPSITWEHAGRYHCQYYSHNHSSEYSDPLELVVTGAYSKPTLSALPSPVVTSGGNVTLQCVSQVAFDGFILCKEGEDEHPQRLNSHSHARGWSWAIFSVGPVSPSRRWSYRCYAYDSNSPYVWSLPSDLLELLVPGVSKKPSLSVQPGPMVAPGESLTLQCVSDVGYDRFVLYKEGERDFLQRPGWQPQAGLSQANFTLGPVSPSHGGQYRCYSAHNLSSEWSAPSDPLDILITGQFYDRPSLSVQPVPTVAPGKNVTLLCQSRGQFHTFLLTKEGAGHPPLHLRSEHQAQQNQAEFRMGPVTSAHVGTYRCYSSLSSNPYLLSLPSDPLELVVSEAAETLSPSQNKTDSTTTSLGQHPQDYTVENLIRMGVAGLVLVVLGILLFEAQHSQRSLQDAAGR
T5 sequence (O75019 17-489): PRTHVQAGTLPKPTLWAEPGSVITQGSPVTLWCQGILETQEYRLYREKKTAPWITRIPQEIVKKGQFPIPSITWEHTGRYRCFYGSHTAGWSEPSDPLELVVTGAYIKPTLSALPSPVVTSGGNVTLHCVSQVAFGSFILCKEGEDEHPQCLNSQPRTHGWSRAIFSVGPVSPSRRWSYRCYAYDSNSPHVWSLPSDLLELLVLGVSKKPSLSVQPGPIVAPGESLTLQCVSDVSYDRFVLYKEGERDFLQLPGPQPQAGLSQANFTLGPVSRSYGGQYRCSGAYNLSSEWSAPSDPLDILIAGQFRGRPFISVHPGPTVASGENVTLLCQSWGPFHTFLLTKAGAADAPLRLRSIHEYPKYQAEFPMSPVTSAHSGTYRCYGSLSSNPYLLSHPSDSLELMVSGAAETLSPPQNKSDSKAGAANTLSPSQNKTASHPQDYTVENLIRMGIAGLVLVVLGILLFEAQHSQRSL
T11 sequence (A6NI73 42-299): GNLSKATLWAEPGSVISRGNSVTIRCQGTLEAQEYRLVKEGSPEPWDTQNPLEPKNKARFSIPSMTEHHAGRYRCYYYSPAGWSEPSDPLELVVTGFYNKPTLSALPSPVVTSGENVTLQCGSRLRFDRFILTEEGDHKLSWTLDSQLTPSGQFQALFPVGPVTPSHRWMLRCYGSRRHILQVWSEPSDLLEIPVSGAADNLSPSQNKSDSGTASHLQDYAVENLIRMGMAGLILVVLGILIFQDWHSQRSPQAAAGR
T9 sequence (Q8NHL6 24-650): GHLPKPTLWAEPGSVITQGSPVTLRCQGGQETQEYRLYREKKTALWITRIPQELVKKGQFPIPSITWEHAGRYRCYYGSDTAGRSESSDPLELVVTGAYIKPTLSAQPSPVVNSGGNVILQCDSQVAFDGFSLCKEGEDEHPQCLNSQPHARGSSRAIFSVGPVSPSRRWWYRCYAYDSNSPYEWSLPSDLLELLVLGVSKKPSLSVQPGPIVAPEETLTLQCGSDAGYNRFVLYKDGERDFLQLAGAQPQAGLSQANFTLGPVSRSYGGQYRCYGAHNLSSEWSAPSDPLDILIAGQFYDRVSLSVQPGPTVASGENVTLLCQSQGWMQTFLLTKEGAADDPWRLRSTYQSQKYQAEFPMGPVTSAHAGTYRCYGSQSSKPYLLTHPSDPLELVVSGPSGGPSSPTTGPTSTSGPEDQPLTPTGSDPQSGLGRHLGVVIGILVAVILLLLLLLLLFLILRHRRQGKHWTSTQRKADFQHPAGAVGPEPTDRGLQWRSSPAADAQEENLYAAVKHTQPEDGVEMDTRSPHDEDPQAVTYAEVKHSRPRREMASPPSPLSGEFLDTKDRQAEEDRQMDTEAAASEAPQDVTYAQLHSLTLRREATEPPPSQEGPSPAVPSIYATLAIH
T7 sequence (Q6PI73 24-481): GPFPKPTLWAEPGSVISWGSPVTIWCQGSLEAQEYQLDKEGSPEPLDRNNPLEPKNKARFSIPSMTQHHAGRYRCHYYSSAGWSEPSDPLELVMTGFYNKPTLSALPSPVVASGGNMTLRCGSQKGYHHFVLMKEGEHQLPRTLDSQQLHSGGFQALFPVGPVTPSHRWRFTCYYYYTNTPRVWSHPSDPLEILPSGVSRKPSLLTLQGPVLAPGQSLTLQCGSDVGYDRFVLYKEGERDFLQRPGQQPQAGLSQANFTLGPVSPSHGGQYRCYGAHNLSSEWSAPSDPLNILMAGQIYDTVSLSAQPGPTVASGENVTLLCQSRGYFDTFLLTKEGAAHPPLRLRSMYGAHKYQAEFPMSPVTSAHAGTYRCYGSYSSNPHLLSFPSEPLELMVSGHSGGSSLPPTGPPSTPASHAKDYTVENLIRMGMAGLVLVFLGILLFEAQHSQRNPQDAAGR

B1: 21A5.IgG1.3 (antibody, V domains shown)
VH: QVQLVQSGAEVKKPGASVKVSCKASGYTFTDYYLHWVRQAPGQGLEWMGIFHPSGDITSSAQNFQGRVTMIRDTSTSTVYMELSSLRSEDTAVYYCARGGVLRYLDWSHAFDIWGQGTMVTVSS
VL: EIALTQSPGTLSLSPGERATLSCRASQSVSSSYLAWYQQKPGQAPRLLIYGASSRATGIPDRFSGSGSGTDFTLTISRLEPEDFAVYYCQQYGSTFGGGTKVEIKR
notes: Fully human antibody, IgG1.3, kappa; also called 21A5 WT; 21A5WT
Consider B1, for which the Kd came out at 0.023 nM in test [1] and 0.14 nM in [8]. Besides, the app. act. in test [1] was found to be 98%; in test [8], 126%. Further, the off-rate constant (koff) in test [1] is 1.2e-05 s⁻¹; in test [8] it was 0.00017 s⁻¹. Also, the kon in test [1] came to 520000 M⁻¹ s⁻¹; in test [8], 1.2e+06 M⁻¹ s⁻¹. In addition, the EC50 in test [2] was found to be 0.0898 µg/mL; in [3] it was 0.0738 µg/mL; in test [5], 9.18 µg/mL; in test [6] it was 12.5 µg/mL; in test [7], 0.091 µg/mL; in test [18], 0.0518 µg/mL. The IC50 in [4] turned out to be 1.61 µg/mL; in [9], 3.83 µg/mL. The binding result in test [10], in test [11], in [12], in [13], in test [14] and in [15] was “no binding (tested: 20 µg/ml)” each time. Further, the binding result in test [16] and in test [17] was “no binding (tested: 20 µg/ml)” in each case.

B2: 21D9.IgG1.3 (antibody)
heavy: EGQLLESGGDLVQPGGSLRLSCATSGFTFSNYAMNWVRQAPGKGLEWISVISVSGGSTYYADSVKGRFTISRDNSKNTLYLQMNSLRAEDTAVYYCAKDYYYDSGSYYDSFFDYWGQGTLVTVSSASTKGPSVFPLAPSSKSTSGGTAALGCLVKDYFPEPVTVSWNSGALTSGVHTFPAVLQSSGLYSLSSVVTVPSSSLGTQTYICNVNHKPSNTKVDKRVEPKSCDKTHTCPPCPAPEAEGAPSVFLFPPKPKDTLMISRTPEVTCVVVDVSHEDPEVKFNWYVDGVEVHNAKTKPREEQYNSTYRVVSVLTVLHQDWLNGKEYKCKVSNKALPAPIEKTISKAKGQPREPQVYTLPPSREEMTKNQVSLTCLVKGFYPSDIAVEWESNGQPENNYKTTPPVLDSDGSFFLYSKLTVDKSRWQQGNVFSCSVMHEALHNHYTQKSLSLSPG
light: not shown
notes: also called 21D9 WT; ILT4.6.IgG1.3
In test [19], B2 came in with a Kd of 4 nM, a koff of 0.0035 s⁻¹ and a kon of 880000 M⁻¹ s⁻¹. In [20], this molecule yielded an equilibrium dissociation constant (Kd) of 0.32 nM, a koff of 0.00026 s⁻¹ and a kon of 820000 M⁻¹ s⁻¹. Besides, in test [1], the dissociation constant Kd amounted to 0.5 nM, the app. act. was 70%, the off-rate (koff) is 0.00054 s⁻¹ and the kon was 1.1e+06 M⁻¹ s⁻¹. The “fold weaker affinity than for human ILT4” value in test [21] was roughly 12 fold. For the same molecule, in [8], the Kd is 0.31 nM and 0.32 nM and 0.37 nM; the koff is 0.001 s⁻¹ and 0.0011 s⁻¹; the kon was 3.3e+06 M⁻¹ s⁻¹ and 3.2e+06 M⁻¹ s⁻¹ and 3e+06 M⁻¹ s⁻¹. In test [18], this molecule came in with an EC50 of 0.0127 µg/mL.
